B1: SMOC2 (parent)
chain: PALETQPQGDEEDIASRYPTLWTE
B2: IMPA1 (parent)
chain: FIGEESVAAGEKSILTDNPTWIID

Variants of: B1
Assay: protein stability index of a GFP-peptide fusion (GPS, HEK-293T) (PSI 1-6); higher = more stable
Conditions: c terminus: a fixed tail appended
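Further: lentivirally expressed fusions sorted by FACS into six bins by GFP to DsRed ratio, PSI derived from sequencing read proportions per bin multiplied by bin number.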

Protein stability index, by site and new letter:
A2: E 4.48 | C 4.4 | D 5.13 | G 5.22 | F 4.53 | H 4.74
P1: R 4.74 | I 4.09 | Y 3.1 | L 4 | K 4.04 | G 4.33 | N 4.08 | A 4.26 | E 4.63 | H 4.32 | W 3.84 | M 4.25 | Q 3.91 | D 4.56 | T 4.58 | S 4.78 | F 3.44 | V 4.24 | C 3.24

Variants of: B2
Assay: as above
Conditions: c terminus: a fixed tail appended

Protein stability index, by site and new letter:
I22: E 4.71 | P 3.76 | S 2.35 | F 2.01 | C 2.18 | K 2.48 | Q 2.75 | G 3.11 | D 4.58 | N 3.12 | H 3.37 | W 2.33 | M 2.57 | R 2.09 | A 1.76 | V 2.31 | Y 2.82 | L 2.67 | T 1.68
S13: V 2.47 | F 1.97 | I 1.99 | W 2.21 | N 1.98 | A 2.06 | H 1.96 | C 2.27 | T 1.89 | P 2.02 | Y 2 | K 2.16 | L 1.95 | Q 1.99 | M 1.73 | D 2.44 | G 1.67 | E 2.32 | R 2.4
D17: K 1.46 | I 2.7 | E 2.6 | M 2.13 | C 1.66 | Y 1.48 | A 1.54 | V 1.55 | G 2.08 | S 1.71 | T 1.63 | H 1.93 | Q 1.78 | L 2.06 | P 2 | R 1.68 | F 2.25 | W 2.23 | N 1.85
G10: I 2.43 | V 2.37 | P 2.15 | S 2 | N 2.21 | F 1.85 | L 2.41 | D 2.48 | Q 2.67 | H 1.87 | W 1.83 | Y 1.85 | C 2.21 | M 2.2 | K 2.01 | T 2.19 | R 1.97 | E 2.8 | A 2.18
K12: E 2.21 | R 2.57 | Q 1.97 | W 1.97 | P 2.45 | F 1.56 | N 1.89 | H 2.06 | T 2.32 | S 2.12 | I 1.61 | D 2.27 | A 2.25 | V 2.11 | G 1.91 | M 2.29 | L 2.25 | Y 2.35 | C 1.93
W21: V 4.95 | K 4.78 | M 4.69 | Y 3.96 | Q 4.65 | E 5.07 | N 4.57 | G 4.71 | C 4.23 | I 3.92 | D 4.85 | S 4.41 | T 4.87 | H 4.71 | P 4.67 | A 4.65 | R 4.48 | F 3.89 | L 4.06
I14: D 2.34 | P 2.33 | W 2.22 | H 2.44 | G 2.38 | A 2.47 | L 1.78 | V 2.23 | R 1.99 | F 1.5 | Y 1.91 | E 2.31 | Q 2.01 | K 2.54 | S 2.32 | T 2.6 | C 1.68 | M 2.15 | N 2.23
T20: E 3.67 | M 1.82 | S 2.56 | N 3.1 | Y 1.7 | I 1.73 | H 2.67 | A 2.43 | K 3.4 | L 2.05 | Q 3.09 | C 2.2 | F 2.29 | P 2.25 | R 2.73 | G 2.71 | W 2.03 | V 2.65 | D 3.32
A8: T 2.13 | W 1.74 | Y 2.39 | V 2.52 | S 2.3
E11: P 1.53 | T 2.3 | L 1.77 | K 1.89 | A 1.86 | G 1.96 | H 1.7 | I 2.1 | R 1.49 | Y 1.93 | N 2.04 | F 2.57 | S 2.17 | W 1.37 | C 1.98 | V 1.92 | D 2.3 | M 2.01 | Q 1.98
A9: K 1.96 | W 1.87 | V 2.31 | D 2.98 | T 2.1 | M 1.75 | C 1.84 | L 1.78 | G 2.09 | I 1.81 | R 1.5 | Y 2.59 | H 1.8 | P 2.52 | F 2.04 | N 2.03 | Q 2.24 | E 2.42 | S 1.95
N18: W 2.1 | T 2.84 | F 2.46 | V 2.75 | P 3.14 | M 2.6 | C 2.64 | I 2.71 | K 2.73 | D 3.68 | G 2.71 | R 2.31 | L 2.88 | S 3.05 | A 3.01 | E 3.48 | Q 2.86 | H 2.95 | Y 2.62
T16: P 1.26 | H 2.38 | D 3.17 | L 1.83 | N 2.89 | R 2.37 | E 2.64 | V 2.21 | M 2.38 | G 2.11 | F 1.66 | I 1.41 | W 1.72 | K 2.73 | Y 1.64 | S 1.94 | Q 2.19 | A 2.35 | C 3.16
P19: W 1.96 | M 2.27 | R 1.96 | I 2.32 | V 2.39 | A 2.41 | Q 2.92 | S 2.38 | H 3.02 | F 2.35 | C 1.76 | K 2.2 | T 2.83 | D 3.09 | N 2.89 | E 3.51 | L 1.97 | G 3.13 | Y 2.18
D24: W 2.06 | H 2.01 | A 1.71 | K 2.07 | I 1.16 | C 1.72 | Y 2.33 | Q 2.15 | F 2.2 | P 2.04 | R 1.59 | M 2.05 | G 2.44 | V 1.86 | T 1.7 | L 2.05 | E 2.03 | S 1.76 | N 1.66
I23: F 2.81 | R 3.9 | H 3.75 | Y 3.45 | V 2.02 | L 3.6 | P 3.04 | N 3.55 | D 3.04 | G 2.99 | E 3.85 | M 2.52 | W 2.59 | K 3.64 | C 3.44 | A 1.84 | S 2.27 | T 1.92 | Q 3.39
L15: M 2.15 | Q 2.28 | T 2.33 | C 2.3 | I 1.98 | D 2.83 | N 2.78 | H 2.22 | K 2.47 | W 2.48 | E 2.61 | S 2.33 | V 2.52 | P 2.57 | F 2.06 | G 2.77 | A 2.33 | Y 2.05 | R 2.17
